Ends that are not written are not given here.
Biological target: anti-SPAPP monoclonal antibody CM61
Assay: competition EIA: SPAPP in 83% human plasma competes with plate-coated SPAPP for 10 ng/ml CM61

lowest antigen concentration detectable by competition: > 200 pg/mL
Binder: MLPGLALLLLAAWTARA-OH [amyloid precursor protein signal peptide (SPAPP), …-COOH]

— patent US20140072592A1
